How the values were obtained:
[1] = tested on: PolyQ35::YFP; assay: PolyQ35::YFP aggregation in C. elegans overexpressing NAC (fluorescence microscopy, SDD-AGE); format: in vivo; conditions: day 3 of adulthood
Source text: NAC is a major ribosome-binding factor interacting broadly with nascent chains (del Alamo et al., 2011). However, its assumed chaperone function is poorly investigated. […] Although loss of NAC causes pleiotropic defects in C. elegans (Gamerdinger et al., 2015), this finding raises the possibility that NAC directly exerts a chaperone function on aggregation-prone proteins. In this case, overexpression of NAC should prevent aggregation of PolyQ proteins in vivo. Therefore, we used a C. elegans strain expressing 35 consecutive glutamine residues fused to YFP (PolyQ35::YFP) in body wall muscle cells. This PolyQ length is close to the aggregation threshold in C. elegans muscle cells, leading to progressive, age-dependent aggregation starting at day 2 of adulthood (Morley et al., 2002). We generated transgenic animals that overexpress FLAG-tagged α- and βNAC under the control of the muscle-specific myo-3 promoter. PolyQ aggregation was assessed at day 3 of adulthood by fluorescence microscopy as well as semi-denaturing detergent agarose gel electrophoresis (SDD-AGE), which detects high molecular weight oligomeric PolyQ species (Halfmann and Lindquist, 2008). […] This is evident by magnification of the head regions showing diffuse PolyQ35::YFP and less punctate PolyQ35::YFP structures when NAC was overexpressed (FIG. 1A, head region images). […] To directly test the potential chaperone function of NAC, we employed a peptide composed of 51 consecutive glutamines (PolyQ51) as a model substrate in a well-established in vitro aggregation assay. We initiated aggregation of PolyQ51 by cleaving a solubilizing GST tag with TEV protease and detected aggregates over time using a filter trap assay.
Worms were cultured according to standard techniques with E. coli OP50 as food source (Brenner, 1974). Transgenic strains were generated using standard microinjection protocols (Mello and Fire, 1995). […]

[2] = target: T1, mutant Huntingtin exon 1 (mHttQ51) (Homo sapiens, UniProt P42858, INS38QQQQQQQQQQQQQQQQQQQQQQQQQQQQQQQ); assay: In vitro filter trap aggregation assay of mutant Huntingtin exon 1; format: biochemical
T1 construct: mutant Huntingtin exon 1 containing a pathogenic stretch of 51 glutamines (mHttQ51); GST (N, cleaved yes); made in house; host or cells: E. coli Rosetta 2(DE3) pLysS
Experimental: Mutant Huntingtin and PolyQ51 aggregation reactions were performed at concentration 3 μM of mHttQ51, 0.044 Units/μl acTEV protease (Invitrogen, Carlsbad, CA, USA), and respective concentrations of Ovalbumin (Sigma) or purified NAC chaperone variants. Aggregation was conducted in TEV reaction buffer (Invitrogen) and incubated at 30° C. AtxQ78 was buffer exchanged into TEV reaction buffer using 7K MWCO Zeba Spin Desalting Columns (Thermo Fisher) to initiate aggregation. AtxQ78 aggregation reactions were performed at 30 μM of Ataxin-3 in reaction buffer (20 mM sodium phosphate pH 7.5, 25 mM NaCl, 6 mM MgCl2, 2 mM DTT, 5% (v/v) glycerol) and incubated at 37° C. Samples at varied time-points were then taken and combined in a 1:1 ratio with a 4% (w/v) SDS, 100 mM DTT solution, boiled for 5 min at 95° C., and stored at −20° C. Samples were then filtered through a 0.22 μm cellulose acetate membrane (Whatman) and washed with 0.1% (w/v) SDS. Membrane was probed using an S-tag antibody (Abcam) for mHttQ51 and PolyQ51, and with a His-tag antibody (Abcam) for AtxQ78.

[3] = tested on: PolyQ35::YFP C. elegans worms; assay: Paralysis assay; format: in vivo; conditions: overexpression; day 6 to 10 of adulthood
Experimental: To analyze the percentage of paralyzed worms, 100 semi-synchronized (timed egg lay for 5 h) young adult worms of each strain were placed on a plate containing 150 μM 5-fluorodeoxyuridine. Screening of paralyzed worms was started at day 6 of adulthood.

T1 sequence (P42858 with tags, fused parts or gaps with the stated changes limits assumed): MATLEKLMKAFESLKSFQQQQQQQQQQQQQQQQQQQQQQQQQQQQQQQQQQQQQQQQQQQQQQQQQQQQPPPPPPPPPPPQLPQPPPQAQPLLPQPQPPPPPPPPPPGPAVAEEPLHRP

B1: NAC: nascent polypeptide-associated complex, heterodimer of αNAC and βNAC; species not given at the place (C. elegans icd-1/icd-2 when overexpressed in worms) (protein)
chain 1: MTGSTETRQKEVKEPQVDVSDDSDNEAVEQELTEEQRRVAEAAGLGDHIDKQAKQSRSEKKARKLFSKLGLKQVTGVSRVCIRKSKNILFVINKPDVFKSPGSDTYIIFGEAKIEDLTQHAQMSAIENLKPTREAPQLKTVEEDENEDVEEDSTGIEEKDIELVISQANTTRNKAIRALKEADNDIVNAIMSLTM
chain 2: MMDSKAIAERIKKLQAQQEHVRIGGKGTPRRKKKVIHKTAAADDKKLQSNLKKLSVTNIPGIEEVNMIKDDGTVIHFNNPKVQTSVPANTFSVTGSADNKQITEMLPGILNQLGPESLTHLKKLANNVTKLGPDGKGEDEDVPELVGDFDAASKNETKADEQ
insoluble high molecular weight PolyQ35::YFP aggregate species ([1]; NAC overexpressing worms): less insoluble high molecular weight aggregate species | PolyQ35::YFP aggregation ([1]; overexpressed in body wall muscle cells (myo-3 promoter), fluorescence microscopy): effectively suppressed PolyQ35::YFP aggregation | concentration dependence of mHttQ51 aggregation suppression ([2]; 1×, 5× or 10× molar excess of human NAC): concentration dependent | disaggregation of preformed mHttQ51 aggregates ([2]; 6-hour time delay between initiation of aggregation and addition, 5× molar excess): did not disaggregate preformed mHttQ51 aggregates | motility / age-associated paralysis of PolyQ35::YFP-expressing worms [3]: significantly improves motility
